Assays:
HeLa Kyoto [1] = experiment: solubility in G1/S (NP-40 vs SDS abundance) (log2 ratio); higher = more soluble; settings: cell cycle stage: G1/S
HeLa Kyoto [2] = experiment: melting temperature (median over replicates), in situ; higher = more thermally stable
HeLa Kyoto [3] = experiment: solubility change mitosis vs G1/S (difference of NP-40 vs SDS log2 ratios) (log2 ratio difference); higher = more soluble in mitosis
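Throughout, for melting temperature (median over replicates), in situ: HeLa Kyoto cells synchronized by double thymidine or nocodazole block, proteins quantified by TMT10plex mass spectrometry, three independent biological replicates.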
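Throughout, for solubility change mitosis vs G1/S (difference of NP-40 vs SDS log2 ratios): synchronized HeLa Kyoto cells (double thymidine block for G1/S, nocodazole release for mitosis), protein amounts in NP-40 versus SDS lysates quantified by mass spectrometry, three biological replicates.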
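Throughout, for solubility in G1/S (NP-40 vs SDS abundance): HeLa Kyoto cells arrested at G1/S by double thymidine block, proteins quantified by TMT10plex mass spectrometry in mild NP-40 versus SDS extracts, three biological replicates.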

## MATGDLKRSLRNLEQVLRLLNYPEEVDCVGLIKGDPAASLPIISYSFTSYSPYVTELIMESNVELIAKNDLRFIDAVYKLLRDQFNYKPILTKKQFIQCGFAEWKIQIVCDILNCVMKKHKELSSLQKIPSQQRKKISSGKSEPPLGNEKISAEAVGVDISGRFMTSGKKKAVVIRHLYNEDNVDISEDTLSPITDVNEAVDVSDLNATEIKMPEVKVPEIKAEQQDVNVNPEITALQTMLAECQENLKKLTSIEKRLDCLEQKMKGKVMVDENTWTNLLSRVTLLETEMLLSKKNDEFIEFNEVSEDYASCSDMDLLNPHRKSEVERPASIPLSSGYSTASSDSTPRASTVNYCGLNEISEETTIQKMERMKKMFEETAELLKCPNHYL [CEP44]
HeLa Kyoto [1]
  solubility in G1/S (log2): 0.259
HeLa Kyoto [2]; cell cycle stage: G1/S
  melting temperature: 48.6 °C
HeLa Kyoto [2]; cell cycle stage: mitosis
  melting temperature: 49.3 °C
HeLa Kyoto [3]
  solubility change mitosis (log2): -0.26

## MATKDPTAVERANLLNMAKLSIKGLIESALSFGRTLDSDYPPLQQFFVVMEHCLKHGLKVRKSFLSYNKTIWGPLELVEKLYPEAEEIGASVRDLPGLKTPLGRARAWLRLALMQKKMADYLRCLIIQRDLLSEFYEYHALMMEEEGAVIVGLLVGLNVIDANLCVKGEDLDSQVGVIDFSMYLKNEEDIGNKERNVQIAAILDQKNYVEELNRQLNSTVSSLHSRVDSLEKSNTKLIEELAIAKNNIIKLQEENHQLRSENKLILMKTQQHLEVTKVDVETELQTYKHSRQGLDEMYNEARRQLRDESQLRQDVENELAVQVSMKHEIELAMKLLEKDIHEKQDTLIGLRQQLEEVKAINIEMYQKLQGSEDGLKEKNEIIARLEEKTNKITAAMRQLEQRLQQAEKAQMEAEDEDEKYLQECLSKSDSLQKQISQKEKQLVQLETDLKIEKEWRQTLQEDLQKEKDALSHLRNETQQIISLKKEFLNLQDENQQLKKIYHEQEQALQELGNKLSESKLKIEDIKEANKALQGLVWLKDKEATHCKLCEKEFSLSKRKHHCRNCGEIFCNACSDNELPLPSSPKPVRVCDSCHALLIQRCSSNLP [RUFY2]
HeLa Kyoto [1]
  solubility in G1/S (log2): -0.00835
HeLa Kyoto [2]; cell cycle stage: G1/S
  melting temperature: 49.1 °C
HeLa Kyoto [2]; cell cycle stage: mitosis
  melting temperature: 49.3 °C
HeLa Kyoto [3]
  solubility change mitosis (log2): -0.122

## MATLSFVFLLLGAVSWPPASASGQEFWPGQSAADILSGAASRRRYLLYDVNPPEGFNLRRDVYIRIASLLKTLLKTEEWVLVLPPWGRLYHWQSPDIHQVRIPWSEFFDLPSLNKNIPVIEYEQFIAESGGPFIDQVYVLQSYAEGWKEGTWEEKVDERPCIDQLLYSQDKHEYYRGWFWGYEETRGLNVSCLSVQGSASIVAPLLLRNTSARSVMLDRAENLLHDHYGGKEYWDTRRSMVFARHLREVGDEFRSRHLNSTDDADRIPFQEDWMKMKVKLGSALGGPYLGVHLRRKDFIWGHRQDVPSLEGAVRKIRSLMKTHRLDKVFVATDAVRKEYEELKKLLPEMVRFEPTWEELELYKDGGVAIIDQWICAHARFFIGTSVSTFSFRIHEEREILGLDPKTTYNRFCGDQEKACEQPTHWKITY [POFUT2]
HeLa Kyoto [1]
  solubility in G1/S (log2): 0.154
HeLa Kyoto [2]; cell cycle stage: mitosis
  melting temperature: 53.8 °C
HeLa Kyoto [3]
  solubility change mitosis (log2): -0.151

## MDPGKDKEGVPQPSGPPARKKFVIPLDEDEVPPGVAKPLFRSTQSLPTVDTSAQAAPQTYAEYAISQPLEGAGATCPTGSEPLAGETPNQALKPGAKSNSIIVSPRQRGNPVLKFVRNVPWEFGDVIPDYVLGQSTCALFLSLRYHNLHPDYIHGRLQSLGKNFALRVLLVQVDVKDPQQALKELAKMCILADCTLILAWSPEEAGRYLETYKAYEQKPADLLMEKLEQDFVSRVTECLTTVKSVNKTDSQTLLTTFGSLEQLIAASREDLALCPGLGPQKARRLFDVLHEPFLKVP [ERCC1]
HeLa Kyoto [1]
  solubility in G1/S (log2): 0.296
HeLa Kyoto [2]; cell cycle stage: mitosis
  melting temperature: 51 °C
HeLa Kyoto [3]
  solubility change mitosis (log2): 0.0087

## MDTSSVGGLELTDQTPVLLGSTAMATSLTNVGNSFSGPANPLVSRSNKFQNSSVEDDDDVVFIEPVQPPPPSVPVVADQRTITFTSSKNEELQGNDSKITPSSKELASQKGSVSETIVIDDEEDMETNQGQEKNSSNFIERRPPETKNRTNDVDFSTSSFSRSKVNAGMGNSGITTEPDSEIQIANVTTLETGVSSVNDGQLENTDGRDMNLMITHVTSLQNTNLGDVSNGLQSSNFGVNIQTYTPSLTSQTKTGVGPFNPGRMNVAGDVFQNGESATHHNPDSWISQSASFPRNQKQPGVDSLSPVASLPKQIFQPSVQQQPTKPVKVTCANCKKPLQKGQTAYQRKGSAHLFCSTTCLSSFSHKPAPKKLCVMCKKDITTMKGTIVAQVDSSESFQEFCSTSCLSLYEDKQNPTKGALNKSRCTICGKLTEIRHEVSFKNMTHKLCSDHCFNRYRMANGLIMNCCEQCGEYLPSKGAGNNVLVIDGQQKRFCCQSCVSEYKQVGSHPSFLKEVRDHMQDSFLMQPEKYGKLTTCTGCRTQCRFFDMTQCIGPNGYMEPYCSTACMNSHKTKYAKSQSLGIICHFCKRNSLPQYQATMPDGKLYNFCNSSCVAKFQALSMQSSPNGQFVAPSDIQLKCNYCKNSFCSKPEILEWENKVHQFCSKTCSDDYKKLHCIVTYCEYCQEEKTLHETVNFSGVKRPFCSEGCKLLYKQDFARRLGLRCVTCNYCSQLCKKGATKELDGVVRDFCSEDCCKKFQDWYYKAARCDCCKSQGTLKERVQWRGEMKHFCDQHCLLRFYCQQNEPNMTTQKGPENLHYDQGCQTSRTKMTGSAPPPSPTPNKEMKNKAVLCKPLTMTKATYCKPHMQTKSCQTDDTWRTEYVPVPIPVPVYIPVPMHMYSQNIPVPTTVPVPVPVPVFLPAPLDSSEKIPAAIEELKSKVSSDALDTELLTMTDMMSEDEGKTETTNINSVIIETDIIGSDLLKNSDPETQSSMPDVPYEPDLDIEIDFPRAAEELDMENEFLLPPVFGEEYEEQPRPRSKKKGAKRKAVSGYQSHDDSSDNSECSFPFKYTYGVNAWKHWVKTRQLDEDLLVLDELKSSKSVKLKEDLLSHTTAELNYGLAHFVNEIRRPNGENYAPDSIYYLCLGIQEYLCGSNRKDNIFIDPGYQTFEQELNKILRSWQPSILPDGSIFSRVEEDYLWRIKQLGSHSPVALLNTLFYFNTKYFGLKTVEQHLRLSFGTVFRHWKKNPLTMENKACLRYQVSSLCGTDNEDKITTGKRKHEDDEPVFEQIENTANPSRCPVKMFECYLSKSPQNLNQRMDVFYLQPECSSSTDSPVWYTSTSLDRNTLENMLVRVLLVKDIYDKDNYELDEDTD [ZMYM2]
HeLa Kyoto [1]
  solubility in G1/S (log2): -0.229
HeLa Kyoto [2]; cell cycle stage: G1/S
  melting temperature: 49.3 °C
HeLa Kyoto [2]; cell cycle stage: mitosis
  melting temperature: 49.7 °C
HeLa Kyoto [3]
  solubility change mitosis (log2): 0.00298

## MDVSGQETDWRSTAFRQKLVSQIEDAMRKAGVAHSKSSKDMESHVFLKAKTRDEYLSLVARLIIHFRDIHNKKSQASVSDPMNALQSLTGGPAAGAAGIGMPPRGPGQSLGGMGSLGAMGQPMSLSGQPPPGTSGMAPHSMAVVSTATPQTQLQLQQVALQQQQQQQQFQQQQQAALQQQQQQQQQQQFQAQQSAMQQQFQAVVQQQQQLQQQQQQQQHLIKLHHQNQQQIQQQQQQLQRIAQLQLQQQQQQQQQQQQQQQQALQAQPPIQQPPMQQPQPPPSQALPQQLQQMHHTQHHQPPPQPQQPPVAQNQPSQLPPQSQTQPLVSQAQALPGQMLYTQPPLKFVRAPMVVQQPPVQPQVQQQQTAVQTAQAAQMVAPGVQMITEALAQGGMHIRARFPPTTAVSAIPSSSIPLGRQPMAQVSQSSLPMLSSPSPGQQVQTPQSMPPPPQPSPQPGQPSSQPNSNVSSGPAPSPSSFLPSPSPQPSQSPVTARTPQNFSVPSPGPLNTPVNPSSVMSPAGSSQAEEQQYLDKLKQLSKYIEPLRRMINKIDKNEDRKKDLSKMKSLLDILTDPSKRCPLKTLQKCEIALEKLKNDMAVPTPPPPPVPPTKQQYLCQPLLDAVLANIRSPVFNHSLYRTFVPAMTAIHGPPITAPVVCTRKRRLEDDERQSIPSVLQGEVARLDPKFLVNLDPSHCSNNGTVHLICKLDDKDLPSVPPLELSVPADYPAQSPLWIDRQWQYDANPFLQSVHRCMTSRLLQLPDKHSVTALLNTWAQSVHQACLSAA [MED15]
HeLa Kyoto [1]
  solubility in G1/S (log2): 0.144
HeLa Kyoto [2]; cell cycle stage: mitosis
  melting temperature: 51.3 °C
HeLa Kyoto [3]
  solubility change mitosis (log2): 0.147

## MEAAVGVPDGGDQGGAGPREDATPMDAYLRKLGLYRKLVAKDGSCLFRAVAEQVLHSQSRHVEVRMACIHYLRENREKFEAFIEGSFEEYLKRLENPQEWVGQVEISALSLMYRKDFIIYREPNVSPSQVTENNFPEKVLLCFSNGNHYDIVYPIKYKESSAMCQSLLYELLYEKVFKTDVSKIVMELDTLEVADEDNSEISDSEDDSCKSKTAAAAADVNGFKPLSGNEQLKNNGNSTSLPLSRKVLKSLNPAVYRNVEYEIWLKSKQAQQKRDYSIAAGLQYEVGDKCQVRLDHNGKFLNADVQGIHSENGPVLVEELGKKHTSKNLKAPPPESWNTVSGKKMKKPSTSGQNFHSDVDYRGPKNPSKPIKAPSALPPRLQHPSGVRQHAFSSHSSGSQSQKFSSEHKNLSRTPSQIIRKPDRERVEDFDHTSRESNYFGLSPEERREKQAIEESRLLYEIQNRDEQAFPALSSSSVNQSASQSSNPCVQRKSSHVGDRKGSRRRMDTEERKDKDSIHGHSQLDKRPEPSTLENITDDKYATVSSPSKSKKLECPSPAEQKPAEHVSLSNPAPLLVSPEVHLTPAVPSLPATVPAWPSEPTTFGPTGVPAPIPVLSVTQTLTTGPDSAVSQAHLTPSPVPVSIQAVNQPLMPLPQTLSLYQDPLYPGFPCNEKGDRAIVPPYSLCQTGEDLPKDKNILRFFFNLGVKAYSCPMWAPHSYLYPLHQAYLAACRMYPKVPVPVYPHNPWFQEAPAAQNESDCTCTDAHFPMQTEASVNGQMPQPEIGPPTFSSPLVIPPSQVSESHGQLSYQADLESETPGQLLHADYEESLSGKNMFPQPSFGPNPFLGPVPIAPPFFPHVWYGYPFQGFIENPVMRQNIVLPSDEKGELDLSLENLDLSKDCGSVSTVDEFPEARGEHVHSLPEASVSSKPDEGRTEQSSQTRKADTALASIPPVAEGKAHPPTQILNRERETVPVELEPKRTIQSLKEKTEKVKDPKTAADVVSPGANSVDSRVQRPKEESSEDENEVSNILRSGRSKQFYNQTYGSRKYKSDWGYSGRGGYQHVRSEESWKGQPSRSRDEGYQYHRNVRGRPFRGDRRRSGMGDGHRGQHT [OTUD4]
HeLa Kyoto [1]
  solubility in G1/S (log2): -0.0234
HeLa Kyoto [2]; cell cycle stage: mitosis
  melting temperature: 51.1 °C
HeLa Kyoto [3]
  solubility change mitosis (log2): 0.0663

## MEAEETMECLQEFPEHHKMILDRLNEQREQDRFTDITLIVDGHHFKAHKAVLAACSKFFYKFFQEFTQEPLVEIEGVSKMAFRHLIEFTYTAKLMIQGEEEANDVWKAAEFLQMLEAIKALEVRNKENSAPLEENTTGKNEAKKRKIAETSNVITESLPSAESEPVEIEVEIAEGTIEVEDEGIETLEEVASAKQSVKYIQSTGSSDDSALALLADITSKYRQGDRKGQIKEDGCPSDPTSKQVEGIEIVELQLSHVKDLFHCEKCNRSFKLFYHFKEHMKSHSTESFKCEICNKRYLRESAWKQHLNCYHLEEGGVSKKQRTGKKIHVCQYCEKQFDHFGHFKEHLRKHTGEKPFECPNCHERFARNSTLKCHLTACQTGVGAKKGRKKLYECQVCNSVFNSWDQFKDHLVIHTGDKPNHCTLCDLWFMQGNELRRHLSDAHNISERLVTEEVLSVETRVQTEPVTSMTIIEQVGKVHVLPLLQVQVDSAQVTVEQVHPDLLQDSQVHDSHMSELPEQVQVSYLEVGRIQTEEGTEVHVEELHVERVNQMPVEVQTELLEADLDHVTPEIMNQEERESSQADAAEAAREDHEDAEDLETKPTVDSEAEKAENEDRTALPVLE [ZNF131]
HeLa Kyoto [1]
  solubility in G1/S (log2): -0.231
HeLa Kyoto [2]; cell cycle stage: G1/S
  melting temperature: 46.6 °C
HeLa Kyoto [3]
  solubility change mitosis (log2): -0.0242

## MEAVATATAAKEPDKGCIEPGPGHWGELSRTPVPSKPQDKVEAAEATPVALDSDTSGAENAAVSAMLHAVAASRLPVCSQQQGEPDLTEHEKVAILAQLYHEKPLVFLERFRTGLREEHLACFGHVRGDHRADFYCAEVARQGTARPRTLRTRLRNRRYAALRELIQGGEYFSDEQMRFRAPLLYEQYIGQYLTQEELSARTPTHQPPKPGSPGRPACPLSNLLLQSYEERELQQRLLQQQEEEEACLEEEEEEEDSDEEDQRSGKDSEAWVPDSEERLILREEFTSRMHQRFLDGKDGDFDYSTVDDNPDFDNLDIVARDEEERYFDEEEPEDAPSPELDGD [CCDC97]
HeLa Kyoto [1]
  solubility in G1/S (log2): 0.105
HeLa Kyoto [2]; cell cycle stage: G1/S
  melting temperature: 49.6 °C
HeLa Kyoto [2]; cell cycle stage: mitosis
  melting temperature: 50.8 °C
HeLa Kyoto [3]
  solubility change mitosis (log2): 0.36

From the supplement of paper PMC5998384
